From article doi:10.1101/2021.09.02.458712

Target: GFP-LL5β (-ADA) (UniProt Q86SQ0)
Test: co-IP

UniProt Q86SQ0, sequence (Q86SQ0 whole entry): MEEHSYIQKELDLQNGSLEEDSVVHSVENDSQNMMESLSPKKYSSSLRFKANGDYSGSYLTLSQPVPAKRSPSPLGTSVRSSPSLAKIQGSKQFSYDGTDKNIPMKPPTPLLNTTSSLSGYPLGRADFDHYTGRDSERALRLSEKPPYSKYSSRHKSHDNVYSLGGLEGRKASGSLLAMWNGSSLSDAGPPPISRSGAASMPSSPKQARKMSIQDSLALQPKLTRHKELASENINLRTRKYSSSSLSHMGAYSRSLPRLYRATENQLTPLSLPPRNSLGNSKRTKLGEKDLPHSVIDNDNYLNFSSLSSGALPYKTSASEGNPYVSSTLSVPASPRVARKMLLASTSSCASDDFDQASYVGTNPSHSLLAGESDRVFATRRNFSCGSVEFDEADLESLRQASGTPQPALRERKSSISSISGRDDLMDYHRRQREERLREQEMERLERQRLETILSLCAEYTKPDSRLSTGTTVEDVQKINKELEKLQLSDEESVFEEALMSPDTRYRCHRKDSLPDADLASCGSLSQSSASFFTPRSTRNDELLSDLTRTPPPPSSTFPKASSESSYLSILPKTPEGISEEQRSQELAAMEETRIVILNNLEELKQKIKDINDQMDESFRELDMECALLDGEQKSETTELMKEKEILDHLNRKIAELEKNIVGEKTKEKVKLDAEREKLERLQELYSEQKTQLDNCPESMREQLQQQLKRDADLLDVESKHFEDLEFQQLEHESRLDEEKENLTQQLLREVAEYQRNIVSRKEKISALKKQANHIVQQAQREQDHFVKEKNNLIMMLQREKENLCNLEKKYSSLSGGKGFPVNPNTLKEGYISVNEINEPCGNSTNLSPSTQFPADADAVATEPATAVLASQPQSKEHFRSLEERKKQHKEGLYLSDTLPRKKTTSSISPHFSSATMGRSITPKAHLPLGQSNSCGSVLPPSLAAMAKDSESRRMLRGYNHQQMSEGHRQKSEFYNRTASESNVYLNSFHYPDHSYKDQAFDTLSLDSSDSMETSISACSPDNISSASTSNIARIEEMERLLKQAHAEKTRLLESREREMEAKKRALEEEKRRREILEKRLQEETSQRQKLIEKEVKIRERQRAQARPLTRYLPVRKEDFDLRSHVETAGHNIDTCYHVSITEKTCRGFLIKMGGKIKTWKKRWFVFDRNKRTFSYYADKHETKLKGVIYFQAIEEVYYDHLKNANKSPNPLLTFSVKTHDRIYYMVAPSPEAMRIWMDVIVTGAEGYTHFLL

fold decrease of association against GFP-LL5β: 2 fold
B1: endogenous CLASP2 (natural protein)
chain: MAMGDDKSFDDEESVDGNRPSSAASAFKVPAPKTSGNPANSARKPGSAGGPKVGGASKEGGAGAVDEDDFIKAFTDVPSIQIYSSRELEETLNKIREILSDDKHDWDQRANALKKIRSLLVAGAAQYDCFFQHLRLLDGALKLSAKDLRSQVVREACITVAHLSTVLGNKFDHGAEAIVPTLFNLVPNSAKVMATSGCAAIRFIIRHTHVPRLIPLITSNCTSKSVPVRRRSFEFLDLLLQEWQTHSLERHAAVLVETIKKGIHDADAEARVEARKTYMGLRNHFPGEAETLYNSLEPSYQKSLQTYLKSSGSVASLPQSDRSSSSSQESLNRPFSSKWSTANPSTVAGRVSAGSSKASSLPGSLQRSRSDIDVNAAAGAKAHHAAGQSVRSGRLGAGALNAGSYASLEDTSDKLDGTASEDGRVRAKLSAPLAGMGNAKADSRGRSRTKMVSQSQPGSRSGSPGRVLTTTALSTVSSGVQRVLVNSASAQKRSKIPRSQGCSREASPSRLSVARSSRIPRPSVSQGCSREASRESSRDTSPVRSFQPLASRHHSRSTGALYAPEVYGASGPGYGISQSSRLSSSVSAMRVLNTGSDVEEAVADALKKPARRRYESYGMHSDDDANSDASSACSERSYSSRNGSIPTYMRQTEDVAEVLNRCASSNWSERKEGLLGLQNLLKNQRTLSRVELKRLCEIFTRMFADPHGKRVFSMFLETLVDFIQVHKDDLQDWLFVLLTQLLKKMGADLLGSVQAKVQKALDVTRESFPNDLQFNILMRFTVDQTQTPSLKVKVAILKYIETLAKQMDPGDFINSSETRLAVSRVITWTTEPKSSDVRKAAQSVLISLFELNTPEFTMLLGALPKTFQDGATKLLHNHLRNTGNGTQSSMGSPLTRPTPRSPANWSSPLTSPTNTSQNTLSPSAFDYDTENMNSEDIYSSLRGVTEAIQNFSFRSQEDMNEPLKRDSKKDDGDSMCGGPGMSDPRAGGDATDSSQTALDNKASLLHSMPTHSSPRSRDYNPYNYSDSISPFNKSALKEAMFDDDADQFPDDLSLDHSDLVAELLKELSNHNERVEERKIALYELMKLTQEESFSVWDEHFKTILLLLLETLGDKEPTIRALALKVLREILRHQPARFKNYAELTVMKTLEAHKDPHKEVVRSAEEAASVLATSISPEQCIKVLCPIIQTADYPINLAAIKMQTKVIERVSKETLNLLLPEIMPGLIQGYDNSESSVRKACVFCLVAVHAVIGDELKPHLSQLTGSKMKLLNLYIKRAQTGSGGADPTTDVSGQS
